One block for each molecule: values may come before it.
Legend:
[1] = test system: retinal pigment epithelial cells (ARPE-19 cells); assay: Tight junction breakdown suppression test, impedance by xCELLigence (Example 34); assay type: cell-based
Description: FBS (FUJIFILM Wako Pure Chemical Corp.) was added at 10% to D-MEM (FUJIFILM Wako Pure Chemical Corp.), and penicillin-streptomycin (Nacalai Tesque, Inc.) was added at 1% thereto to prepare DMEM medium. ARPE-19 cells (ATCC) were cultured in the DMEM medium using a 10 cm dish (Corning Inc.).
xCELLigence RTCA DP system (ACEA Biosciences, Inc.) was installed in a CO2 incubator and used in a state loaded overnight or longer after the installation for stabilization. Immediately before cell preparation, DMEM medium was added at 50 μL/well to E-plate (ACEA Biosciences, Inc.), and a background was measured.
The medium was removed from the ARPE-19 cells cultured in (1) described above, which were then washed by repeating the addition and removal of 10 mL of PBS(−) (FUJIFILM Wako Pure Chemical Corp.) twice. 1 mL of trypsin-EDTA (FUJIFILM Wako Pure Chemical Corp.) was added thereto, and the cells were dispersed by incubation in a CO2 incubator (Taitec Corp.) at 37° C. for 3 minutes. Then, the activity of trypsin was neutralized by the addition of 10 mL of DMEM medium. The neutralized cell dispersion was transferred to a 50 mL tube (Falcon) and centrifuged at 1500 rpm for 5 minutes using a centrifuge (Kubota Corp.). Then, the supernatant was discarded, and the precipitates were resuspended in 1 mL of DMEM medium. A 10 μL aliquot of the resuspended cell dispersion was mixed with 10 μL of Trypan Blue (NanoEnTek Inc.), and 10 μL thereof was added to a counting chamber (NanoEnTek Inc.). Then, the number of live cells was counted in Auto Cell Counter EVE (NanoEnTek Inc.). The cell suspension was diluted into 4.0×10^5 cells/mL with DMEM medium and inoculated at 80 μL/well to E-plate (ACEA Biosciences, Inc.).
The impedance of the plate was measured every 15 minutes using the xCELLigence RTCA DP system to confirm the adhesion of the cells to the plate. […] After the addition, the impedance was also measured every 15 minutes.
The impedance was measured 10 to 12 hours after the addition of A-peak-BSA and normalized to that of the A-peak-BSA addition group defined as 0.

[2] = target: CEL-BSA (Bos taurus, UniProt P02769); assay: Specificity of SJ-5 by competitive ELISA (Example 7); assay type: binding; conditions: GAL13-BSA or Glycer-AGEs-BSA immobilized, POD-labeled SJ-5 0.4 μg/mL
Sequence of CEL-BSA (P02769 25-607): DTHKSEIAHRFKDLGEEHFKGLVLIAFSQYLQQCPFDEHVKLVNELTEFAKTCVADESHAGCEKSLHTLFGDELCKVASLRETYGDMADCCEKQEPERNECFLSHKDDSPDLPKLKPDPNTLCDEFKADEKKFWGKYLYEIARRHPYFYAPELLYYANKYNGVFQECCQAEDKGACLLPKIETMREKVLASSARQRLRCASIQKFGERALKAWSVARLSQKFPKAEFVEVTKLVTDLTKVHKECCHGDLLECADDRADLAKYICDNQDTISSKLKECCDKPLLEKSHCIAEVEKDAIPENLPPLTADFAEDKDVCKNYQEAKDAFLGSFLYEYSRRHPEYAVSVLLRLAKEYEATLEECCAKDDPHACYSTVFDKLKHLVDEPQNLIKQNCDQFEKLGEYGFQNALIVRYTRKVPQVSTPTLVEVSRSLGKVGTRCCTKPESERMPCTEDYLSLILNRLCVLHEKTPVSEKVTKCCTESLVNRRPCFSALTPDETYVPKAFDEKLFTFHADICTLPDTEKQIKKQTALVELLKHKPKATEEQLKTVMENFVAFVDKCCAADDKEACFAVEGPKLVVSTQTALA
Description: (§1) GAL13-BSA or Glycer-AGEs-BSA prepared into 1 μg/mL with PBS (pH 7.4) was added as an immobilized antigen at 100 μL/well to a 96-well microtiter plate (NUNC) and left at 25° C. for 1 hour. The antigen was immobilized overnight at 4° C. The plate was washed three times with PBS containing 0.05% (v/v) Tween 20 (PBS-T) and then blocked with a carbonate buffer solution (pH 9.5) containing 0.5% (w/v) gelatin for 1 hour. A POD-labeled SJ-5 antibody (0.4 μg/mL) was prepared under the same conditions as in Example 6. In order to confirm specificity, BSA containing AGEs derived from glucose (Glu-AGEs-BSA), BSA containing AGEs derived from glycolaldehyde (Glycol-AGEs-BSA), BSA containing AGEs derived from methylglyoxal (MGO-AGEs-BSA), BSA containing AGEs derived from glyoxal (GO-AGEs-BSA), BSA containing N^ε-carboxymethyllysine (CML-BSA), BSA containing N^ε-carboxyethyllysine (CEL-BSA), and bovine serum albumin (BSA) were added at 50 μL/well to the antigen-immobilized plate in the same way as above, and the POD-labeled SJ-5 antibody (50 μL) was further added thereto, and stirred with a plate mixer, and then left standing at room temperature for 1 hour. After washing, an o-phenylenediamine solution (100 μL) prepared into 0.5 mg/mL with a 0.1 M citrate-phosphate buffer solution (pH 5.0) containing 0.02% (w/v) hydrogen peroxide was added to each well and left standing at 25° C. for 10 minutes. Then, color reaction was terminated by the addition of a 1 M sulfuric acid solution (50 μL) to each well. Then, absorbance at 490 nm was measured with a microplate reader.

[3] = target: Glycol-AGEs-BSA (Bos taurus, UniProt P02769); assay: as above; assay type: binding; conditions: GAL13-BSA or Glycer-AGEs-BSA immobilized, POD-labeled SJ-5 0.4 μg/mL
Sequence of Glycol-AGEs-BSA (P02769 25-607): as above
Description: as §1

[4] = target: GO-AGEs-BSA (Bos taurus, UniProt P02769); assay: as above; assay type: binding; conditions: GAL13-BSA or Glycer-AGEs-BSA immobilized, POD-labeled SJ-5 0.4 μg/mL
Sequence of GO-AGEs-BSA (P02769 25-607): as above
Description: as §1

[5] = target: Glycer-AGEs-BSA (Bos taurus, UniProt P02769); assay: as above; assay type: binding; conditions: GAL13-BSA or Glycer-AGEs-BSA immobilized, POD-labeled SJ-5 0.4 μg/mL
Sequence of Glycer-AGEs-BSA (P02769 25-607): as above
Description: as §1

[6] = target: Glu-AGEs-BSA (Bos taurus, UniProt P02769); assay: as above; assay type: binding; conditions: GAL13-BSA or Glycer-AGEs-BSA immobilized, POD-labeled SJ-5 0.4 μg/mL
Sequence of Glu-AGEs-BSA (P02769 25-607): as above
Description: as §1

[7] = target: MGO-AGEs-BSA (Bos taurus, UniProt P02769); assay: as above; assay type: binding; conditions: GAL13-BSA or Glycer-AGEs-BSA immobilized, POD-labeled SJ-5 0.4 μg/mL
Sequence of MGO-AGEs-BSA (P02769 25-607): as above
Description: as §1

[8] = target: CML-BSA (Bos taurus, UniProt P02769); assay: as above; assay type: binding; conditions: GAL13-BSA or Glycer-AGEs-BSA immobilized, POD-labeled SJ-5 0.4 μg/mL
Sequence of CML-BSA (P02769 25-607): as above
Description: as §1

B1: PB-1: mouse monoclonal antibody raised against A-peak-BSA; heavy-chain variable region SEQ ID NO 18, light-chain variable region SEQ ID NO 22 (antibody, listed as Mus musculus, V domains shown)
VH: EVRLQQSGPELVKPGTSVKISCKASGYSFTGYYMHWVKQSPVKSLEWIGRIIPYNGATSYNQNFKDKASLTVDKSSRTAYMDLHSLTSEDSAVYYCARSRYYGRAPYYFDYWGQGTTLTVSS
VL: DVVVTQTPLSLPVSLGDQASISCRSSQSIVHSNGNTYLEWYLQKPGQSPKLLIYKVSNRFSGVPDRISGSGSGTDFTLKISRVEAGDLGVYSCFQGSHVPFTFGSGTKLEIK
suppression of A-peak-BSA-induced reduction in impedance ([1]; 9 μL of PB-1 at 10, 3, 1 or 0.3 mg/mL): significantly suppressed
suppression of reduction in impedance compared with SJ-5 antibody ([1]; PB-1 even in a lower concentration region): stronger suppression than that by the SJ-5 antibody

specificity: reactivity with CEL-BSA [2]: negative
specificity: reactivity with Glycol-AGEs-BSA [3]: positive
specificity: reactivity with GO-AGEs-BSA [4]: negative
specificity: reactivity with Glycer-AGEs-BSA [5]: positive
specificity: reactivity with Glu-AGEs-BSA [6]: negative
specificity: reactivity with MGO-AGEs-BSA [7]: negative
specificity: reactivity with CML-BSA [8]: negative
B2: SJ-5: mouse monoclonal antibody raised against GAL13-MSA; heavy-chain variable region SEQ ID NO 4, light-chain variable region SEQ ID NO 8 (antibody, listed as Mus musculus, V domains shown)
VH: EVMLVESGGRLVKPGGSLKLSCAASGFTFSSYGMSWVRQTPEKRLEWVATISGGGSYTYYPDSVKGRFTISRDNVKNNLYLQMSSLRSEDTALYYCARRGAYGDYGWFAYWGQGTLVTVSA
VL: DIVLTQSPATLSVTPGDSVSLSCRASQSINNNLHWYQQKSHESPRLLIKCASQSISGIPSRFSGSGSGTDFTLSINSVETEDFGMYFCQQSNSWPLTFGAGTKLELK
suppression of A-peak-BSA-induced reduction in impedance ([1]; SJ-5 final concentration of 1 mg/mL): suppression of the reduction was found
